Target: SARS-CoV-2 spike RBD (Wuhan-Hu-1) (Severe acute respiratory syndrome …, UniProt P0DTC2)
Experiment: SPR

B1: COVIC-291 (antibody, V domains shown)
VH: EVQLVESGGGLVQPGRSLRLSCAASGFTFDDYAMHWVRQAPGKGLEWVSGISWNSDSIDYADSVKGRFTISRDNAKNSLYLQMNSLRAEDTALYYCAKDRGYEILTPASFDYWGQGTLVTVSS
VL: DIQMTQSPSSLSASVGDRVTITCRASQSISSYLNWFQHKPGKAPKLLIYGASSLQSGVPSRFSGSGSGTDFTLTISSLQPEDFATYYCQQSYSTPPYTFGQGTKLEIK
B1 was tested, and the Kd was 6.83 nM.

B2: COVIC-30 (antibody, V domains shown)
VH: EVQLVESGGGLVQPGGSLRLSCAASGFTVSSNYMSWVRQAPGKGLEWVSVIYSGGSTYYADSVKGRFTISRDNSKNTLYLQMNSLRAEDTAVYYCARVEWAAAGTFYWGQGTLVTVSS
VL: QSALTQEPSLTVSPGGTVTLTCGSSTGAVTSGHYPYWFQQKPGQAPRTLIYDTSNKRSWTPARFSGSLLGGKAALTLSGAQPEDEAEYYCLLSYSGVWVFGGGTKLTVL
B2 was tested, and the Kd was 4.1 nM.

B3: COVIC-368 (antibody, V domains shown)
VH: QVQLVQSGAEVKKPGASVKVSCKAYGYTFTSHYMHWVRQAPGQGLEWMGIIDSSGGGASYPQKFQGRVTLTRDTSSSTVYMELSSLRSEDTAVYYCAKAHSTNWYGWFDPWGQGTLVTVSS
VL: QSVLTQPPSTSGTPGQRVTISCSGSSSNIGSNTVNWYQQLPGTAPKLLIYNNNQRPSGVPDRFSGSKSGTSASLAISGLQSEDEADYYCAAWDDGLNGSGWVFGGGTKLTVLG
B3 showed a Kd of 0.436 nM.

B4: COVIC-57 (antibody)
chain 1: QVQLQESGGGLVQAGGSLRLSCAASGRTFSEYAMGWFRQAPGKEREFVATISWSGGSTYYTDSVKGRFTISRDNAKNTVYLQMNSLKPDDTAVYYCAAAGLGTVVSEWDYDYDYWGQGTQVTVSSGGGGSGGGGSASTKGPSVFPLAPSSKSTSGGTAALGCLVKDYFPEPVTVSWNSGALTSGVHTFPAVLQSSGLYSLSSVVTVPSSSLGTQTYICNVNHKPSNTKVDKKVEPKSCDKTHTKKKPLDGEYFTLQIRGRERFEMFRELNEALELKDAQAGKEPG
chain 2: QVQLQESGGGLVQAGGSLRLSCAASGRTFSEYAMGWFRQAPGKEREFVATISWSGGSTYYTDSVKGRFTISRDNAKNTVYLQMNSLKPDDTAVYYCAAAGLGTVVSEWDYDYDYWGQGTQVTVSSGGGGSGGGGSKRTVAAPSVFIFPPSDEQLKSGTASVVCLLNNFYPREAKVQWKVDNALQSGNSQESVTEQDSKDSTYSLSSTLTLSKADYEKHKVYACEVTHQGLSSPVTKSFNRGEC
In the case of B4, the Kd is reported as 204 nM.

B5: COVIC-58 (antibody)
chain 1: QVQLQESGGGLVQAGGSLRLSCAASGRTFSEYAMGWFRQAPGKEREFVATISWSGGSTYYTDSVKGRFTISRDNAKNTVYLQMNSLKPDDTAVYYCAAAGLGTVVSEWDYDYDYWGQGTQVTVSSGGGGSGGGGSASTKGPSVFPLAPSSKSTSGGTAALGCLVKDYFPEPVTVSWNSGALTSGVHTFPAVLQSSGLYSLSSVVTVPSSSLGTQTYICNVNHKPSNTKVDKKVEPKSCDKTHTAPELLGGPSVFLFPPKPKDTLMISRTPEVTCVVVDVSHEDPEVKFNWYVDGVEVHNAKTKPREEQYNSTYRVVSVLTVLHQDWLNGKEYKCKVSNKALPAPIEKTISKAKGQPREPQVYTLPPSRDELTKNQVSLTCLVKGFYPSDIAVEWESNGQPENNYKTTPPVLDSDGSFFLYSKLTVDKSRWQQGNVFSCSVMHEALHNHYTQKSLSLSPGKKKKPLDGEYFTLQIRGRERFEMFRELNEALELKDAQAGKEPG
chain 2: B4 chain 2
Binder B5 has a Kd of 139 nM.

B6: COVIC-54 (antibody, V domains shown)
VH: QVQLQESGGGLVQAGGSLRLSCAASGRTFSEYAMGWFRQAPGKEREFVATISWSGGSTYYTDSVKGRFTISRDNAKNTVYLQMNSLKPDDTAVYYCAAAGLGTVVSEWDYDYDYWGQGTQVTVSS
B6 gave a Kd of 244 nM.
